Data set [1] concerns the target T1, MLE dsRBD2 (UniProt P24785 155-257). The experiment in a line: ITC; n=0.93; Filter binding: 20 mM HEPES/NaOH pH 8.0, 150 mM NaCl, 5 mM MgCl2, on ice; ITC: 10 mM HEPES pH 8.0, 75 mM NaCl, 2.5 mM MgCl2, 1 mM b-mercaptoethanol, 20 C; NMR:
The following applies: protein: recombinant; tags: N-terminal His6 removed by TEV; hairpin.

Data set [2] deals with T2, MLE dsRBD1,2 (UniProt P24785 1-257). The experiment in a line: ITC; n=0.95; Filter binding: 20 mM HEPES/NaOH pH 8.0, 150 mM NaCl, 5 mM MgCl2, on ice; ITC: 10 mM HEPES pH 8.0, 75 mM NaCl, 2.5 mM MgCl2, 1 mM b-mercaptoethanol, 20 C; NMR:
To be noted: protein: recombinant; tags: N-terminal His6 removed by TEV; hairpin. (In general: ITC needs no label: the signal is the heat of the interaction.)

Data set [3] concerns the target T2, MLE dsRBD1,2. The experiment in a line: filter binding; 5 mM Mg2+; Filter binding: 20 mM HEPES/NaOH pH 8.0, 150 mM NaCl, 5 mM MgCl2, on ice; ITC: 10 mM HEPES pH 8.0, 75 mM NaCl, 2.5 mM MgCl2, 1 mM b-mercaptoethanol, 20 C; NMR:
The following applies: protein: recombinant; tags: N-terminal His6 removed by TEV; hairpin.

Data set [4] has as its target T1, MLE dsRBD2. The data set is described as above. To be noted: protein: recombinant; tags: N-terminal His6 removed by TEV; hairpin.
The target in data set [5] is MLE dsRBD1,2 linker deletion (UniProt P24785 1-257, del85-140). The experiment in a line: filter binding; affinity similar to dsRBD1,2; Filter binding: 20 mM HEPES/NaOH pH 8.0, 150 mM NaCl, 5 mM MgCl2, on ice; ITC: 10 mM HEPES pH 8.0, 75 mM NaCl, 2.5 mM MgCl2, 1 mM b-mercaptoethanol, 20 C; NMR:
To be noted: protein: recombinant; tags: N-terminal His6 removed by TEV; hairpin.

Data set [6] has as its target T1, MLE dsRBD2. The experiment in a line: ITC; n=0.70; Filter binding: 20 mM HEPES/NaOH pH 8.0, 150 mM NaCl, 5 mM MgCl2, on ice; ITC: 10 mM HEPES pH 8.0, 75 mM NaCl, 2.5 mM MgCl2, 1 mM b-mercaptoethanol, 20 C; NMR:
The following applies: protein: recombinant; tags: N-terminal His6 removed by TEV; blunt, internal A-C mismatch and G-U pairs.

The target in data set [7] is T2, MLE dsRBD1,2. The experiment in a line: ITC; n=0.84; Filter binding: 20 mM HEPES/NaOH pH 8.0, 150 mM NaCl, 5 mM MgCl2, on ice; ITC: 10 mM HEPES pH 8.0, 75 mM NaCl, 2.5 mM MgCl2, 1 mM b-mercaptoethanol, 20 C; NMR:
To be noted: protein: recombinant; tags: N-terminal His6 removed by TEV; blunt, internal A-C mismatch and G-U pairs.

The next data set deals with MLE dsRBD1 (UniProt P24785 1-84). The experiment in a line: NMR titration; Filter binding: 20 mM HEPES/NaOH pH 8.0, 150 mM NaCl, 5 mM MgCl2, on ice; ITC: 10 mM HEPES pH 8.0, 75 mM NaCl, 2.5 mM MgCl2, 1 mM b-mercaptoethanol, 20 C; NMR:
The following applies: protein: recombinant; tags: N-terminal His6 removed by TEV; blunt, internal A-C mismatch and G-U pairs.

Data set [8] concerns the target T1, MLE dsRBD2. The data set is described as above. To be noted: protein: recombinant; tags: N-terminal His6 removed by TEV; blunt, internal A-C mismatch and G-U pairs.
The target in a further data set is MLE dsRBD1 K53+54E (UniProt P24785 1-84, K53E;K54E). The experiment in a line: NMR titration; 1.3x RNA; Filter binding: 20 mM HEPES/NaOH pH 8.0, 150 mM NaCl, 5 mM MgCl2, on ice; ITC: 10 mM HEPES pH 8.0, 75 mM NaCl, 2.5 mM MgCl2, 1 mM b-mercaptoethanol, 20 C; NMR:
To be noted: protein: recombinant; tags: N-terminal His6 removed by TEV; blunt, internal A-C mismatch and G-U pairs.

A further data set addresses MLE dsRBD1 K53E (UniProt P24785 1-84, K53E). The description is as above. The following applies: protein: recombinant; tags: N-terminal His6 removed by TEV; blunt, internal A-C mismatch and G-U pairs.
The next data set deals with MLE dsRBD1 K54E (UniProt P24785 1-84, K54E). Described as above. The following applies: protein: recombinant; tags: N-terminal His6 removed by TEV; blunt, internal A-C mismatch and G-U pairs.
Data set [9] concerns the target T2, MLE dsRBD1,2. The experiment in a line: NMR titration; severe line broadening; Filter binding: 20 mM HEPES/NaOH pH 8.0, 150 mM NaCl, 5 mM MgCl2, on ice; ITC: 10 mM HEPES pH 8.0, 75 mM NaCl, 2.5 mM MgCl2, 1 mM b-mercaptoethanol, 20 C; NMR:
The following applies: protein: recombinant, tags: N-terminal His6 removed by TEV.

Broadly, the Kd is the free concentration of one partner at which half of the binding sites on the other are occupied at equilibrium, for simple one-to-one binding.

For GUGUAAAAUGUUGCAAUAUAUAGUAACGUUUUACGC (structured_RNA) [SL7 14merLoop], the Kd with MLE dsRBD2 [1] was 5.92 ± 1.31 µM; with MLE dsRBD1,2 [2] it was 4.66 ± 0.71 µM; in the data set with MLE dsRBD1,2 [3] it was 6.8 µM; with MLE dsRBD2 [4], about 22 µM. Further, the binding result in data set [5] is “binds”.

B1: SL7 18mer duplex (dsRNA)
RNA 1: AGACGUGUAAAAUGUUGC
RNA 2: GUAACGUUUUACGCGCCU
In the case of B1, the Kd with MLE dsRBD2 [6] is 2.71 ± 0.19 µM; in the data set with MLE dsRBD1,2 [7], 3.18 ± 0.48 µM; with MLE dsRBD1 it was about 470 µM; with MLE dsRBD2 [8], about 33 µM. The binding result with MLE dsRBD1 K53+54E, with MLE dsRBD1 K53E and with MLE dsRBD1 K54E was “no binding” each time.

B2: SL7 23mer duplex (dsRNA)
RNA 1: UUAAAAGACGUGUAAAAUGUUGC
RNA 2: GUAACGUUUUACGCGCCUUUUCC
As to B2, the binding result with MLE dsRBD1,2 [9] (23 + 23 nt, terminal U-C mismatches, internal A-C mismatch) was “binds”.

B3: UR23mer (dsRNA)
RNA 1: UAAAGUGCUUAUAGUGCAGGUAG
RNA 2: ACCUGCACUAUAAGCACUUUAAG
In the case of B3, the binding result in the data set with MLE dsRBD1,2 [9] (3' overhangs 2 nt on both ends) is listed as “binds”.

Values taken from paper PMC6486548, “Structure, dynamics and roX2-lncRNA binding of tandem double-stranded RNA binding domains dsRBD1,2 of Drosophila helicase Maleless”.
